The results in this text go back to paper PMC314469, “Protein Interaction Networks by Proteome Peptide Scanning” (PLoS Biology, 2004).

T1: amphyphisin SH3 (AMPH_HUMAN), P49418
T1 chain: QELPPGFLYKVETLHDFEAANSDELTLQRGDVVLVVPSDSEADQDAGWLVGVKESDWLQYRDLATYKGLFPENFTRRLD

B1: Q96IQ9 293-306 (peptide)
chain: AGSSPRRPQGGSDA
B2: Q9BPU7 391-404 (peptide)
chain: FEGSLRRPLSWKSL
B3: P17480 292-306 (peptide)
chain: FDGRPTKPPPNSYS
B4: Q9UFB1 214-227 (peptide)
chain: AHLPPPRPQRPAET
B5: Q96QH2 422-436 (peptide)
chain: FGDLPRKPPLPSSA
B6: P36959 12-25 (peptide)
chain: FKDVLLRPKRSSLK
B7: P11532 250-263 (peptide)
chain: EVEMLPRPPKVTKE
B8: P17096 49-62 (peptide)
chain: EVPTPKRPRGRPKG
B9: Q16530 104-117 (peptide)
chain: EVFFPPRPERVEHN
B10: O14802 125-138 (peptide)
chain: FLDYLKRPGLTYLQ
B11: Q13258 335-348 (peptide)
chain: FHKIFIRPLRYRSR
B12: Q99743 208-221 (peptide)
chain: FDNTLSRPSRVPLG
B13: P49790 786-799 (peptide)
chain: FGDKFKRPIGSWES
B14: O75449 234-247 (peptide)
chain: FFKGIRRPWKGVLM
B15: Q99853 71-84 (peptide)
chain: FIKIPRRPDQPGKG
B16: Q9NVW8 331-344 (peptide)
chain: FERPFRRPNANFTS
B17: P23470 266-279 (peptide)
chain: EWIVFRRPVPISYH
B18: O15162 171-184 (peptide)
chain: EVITLERPLRSSSS
B19: Q9HCH8 560-573 (peptide)
chain: AHMAISRPLKASQM
B20: Q9ULT8 713-726 (peptide)
chain: EVMILRRPSLQRRA
B21: Q9HC10 643-656 (peptide)
chain: EVDGLSRPQRPRPR
B22: Q9UPW7 1021-1034 (peptide)
chain: FAPEFRRPKNIHLR
B23: Q07283 41-54 (peptide)
chain: FGAVLRRPHDPKTV
B24: Q8WUZ5 5-18 (peptide)
chain: FGRRPRRPVDGRVG
B25: Q99526 361-374 (peptide)
chain: FGLVPERPLKQELG
B26: P78524 857-870 (peptide)
chain: EVLELRRPMDSRLE
B27: O60275 1047-1060 (peptide)
chain: EVPDPNRPQRLGLH
B28: BAC04960 97-111 (peptide)
chain: EYHRPAKPPPPPTG
B29: Q9H3T9 40-53 (peptide)
chain: FSDFLKRPIALLKM
B30: Q9NUK8 110-123 (peptide)
chain: FLSIPRRPNWNQNT
B31: P78508 165-178 (peptide)
chain: FLAKIARPKKRAET
B32: BAC04305 7-21 (peptide)
chain: EYALPQRPPQGPED
B33: Q9NWR1 213-226 (peptide)
chain: FEEGIKRPYFHVKP
B34: Q9BXU7 105-118 (peptide)
chain: EVQPPVRPGKGGSV
B35: O94987 53-66 (peptide)
chain: EWASLLRPLRGREP
B36: Q9NRY7 86-99 (peptide)
chain: EVITLERPLRSNSS
B37: O94885 388-402 (peptide)
chain: FDGSPEKPPEDDSD
B38: O75336 479-493 (peptide)
chain: FGTLPPRPPGQDTS

For one assay, the target named is T1, amphyphisin SH3 (AMPH_HUMAN), P49418. Description: SPOT array.
The molecule B1 came in with a normalised SPOT signal, Boehringer light units (BLU); mean over the file's lines of this peptide of 20.7.
Consider B2, for which the normalised SPOT signal, Boehringer light units (BLU); mean over the file's lines of this peptide is 43.8.
B3 registered a normalised SPOT signal, Boehringer light units (BLU); mean over the file's lines of this peptide of 66.2.
On the same count and under the same terms, in the case of B4 it was 248.
The same measure, in the same setting: the same measure for B5: 48.3.
Same read-out and setting: in the case of B6 it was 3460.
Regarding B7, the normalised SPOT signal, Boehringer light units (BLU); mean over the file's lines of this peptide turned out to be 103.
The same measure, in the same setting: the same measure for B8: 36; for B9: 484; for B10: 14.8.
Still for that read-out and setting: in the case of B11 it was 15900; in that of B12, 1220; in that of B13, 34.
B14 displayed a normalised SPOT signal, Boehringer light units (BLU); mean over the file's lines of this peptide of 62.9.
The same measure, in the same setting: the same measure for B15: 117; for B16: 4010; for B17: 95.2.
Molecule B18 came in with a normalised SPOT signal, Boehringer light units (BLU); mean over the file's lines of this peptide of 660.
Same read-out and setting: in the case of B19 it was 137.
The same measure, in the same setting: the same measure for B20: 236; for B21: 135; for B22: 41.6.
In turn, B23 displayed a normalised SPOT signal, Boehringer light units (BLU); mean over the file's lines of this peptide of 18.4.
Molecule B24 came in with a normalised SPOT signal, Boehringer light units (BLU); mean over the file's lines of this peptide of 35.7.
Turning to B25, the normalised SPOT signal, Boehringer light units (BLU); mean over the file's lines of this peptide is 647.
Still for that read-out and setting: the same measure for B26: 43.8.
On the same count and under the same terms, the same measure for B27: 198; for B28: 43.8.
For the molecule B29, the normalised SPOT signal, Boehringer light units (BLU); mean over the file's lines of this peptide worked out at 22.
On the same count and under the same terms, in the case of B30 it was 164; in that of B31, 168.
On the same count and under the same terms, the same measure for B32: 38.5.
Same read-out and setting: in the case of B33 it was 48.9; in that of B34, 143; in that of B35, 308.
The molecule B36 showed a normalised SPOT signal, Boehringer light units (BLU); mean over the file's lines of this peptide of 384.
On the same count and under the same terms, the same measure for B37: 36.5.
Molecule B38 had a normalised SPOT signal, Boehringer light units (BLU); mean over the file's lines of this peptide of 52.3.

The next assay deals with endophilin SH3 (SH3G2_HUMAN), Q99962. Description: SPOT array.
The molecule B1 displayed a normalised SPOT signal, Boehringer light units (BLU); mean over the file's lines of this peptide of 51.2.
On the same count and under the same terms, the same measure for B2: 67.7.
In turn, B3 returned a normalised SPOT signal, Boehringer light units (BLU); mean over the file's lines of this peptide of 351.
On to B4, for which the normalised SPOT signal, Boehringer light units (BLU); mean over the file's lines of this peptide was found to be 238.
Regarding B5, the normalised SPOT signal, Boehringer light units (BLU); mean over the file's lines of this peptide came to 994.
For the molecule B6, the normalised SPOT signal, Boehringer light units (BLU); mean over the file's lines of this peptide stood at 557.
Still for that read-out and setting: the same measure for B7: 63.
Molecule B8 had a normalised SPOT signal, Boehringer light units (BLU); mean over the file's lines of this peptide of 41.8.
Same read-out and setting: in the case of B9 it was 122.
Same read-out and setting: in the case of B10 it was 7.9.
The same measure, in the same setting: the same measure for B11: 2980; for B12: 170.
Molecule B13 showed a normalised SPOT signal, Boehringer light units (BLU); mean over the file's lines of this peptide of 45.5.
The molecule B14 showed a normalised SPOT signal, Boehringer light units (BLU); mean over the file's lines of this peptide of 159.
On the same count and under the same terms, in the case of B15 it was 479; in that of B16, 343.
Still for that read-out and setting: the same measure for B17: 557; for B18: 102; for B19: 417.
Same read-out and setting: the same measure for B20: 2210; for B21: 281.
B22 yielded a normalised SPOT signal, Boehringer light units (BLU); mean over the file's lines of this peptide of 204.
For B23, the normalised SPOT signal, Boehringer light units (BLU); mean over the file's lines of this peptide turned out to be 51.1.
In turn, B24 displayed a normalised SPOT signal, Boehringer light units (BLU); mean over the file's lines of this peptide of 83.3.
On the same count and under the same terms, in the case of B25 it was 284; in that of B26, 34.9.
The same measure, in the same setting: in the case of B27 it was 228; in that of B28, 86.
The same measure, in the same setting: the same measure for B29: 399.
As for B30, the normalised SPOT signal, Boehringer light units (BLU); mean over the file's lines of this peptide was found to be 1230.
Take B31: the normalised SPOT signal, Boehringer light units (BLU); mean over the file's lines of this peptide stood at 190.
Still for that read-out and setting: the same measure for B32: 36.6.
Regarding B33, the normalised SPOT signal, Boehringer light units (BLU); mean over the file's lines of this peptide was found to be 147.
For B34, the normalised SPOT signal, Boehringer light units (BLU); mean over the file's lines of this peptide was 136.
The molecule B35 returned a normalised SPOT signal, Boehringer light units (BLU); mean over the file's lines of this peptide of 170.
In turn, B36 yielded a normalised SPOT signal, Boehringer light units (BLU); mean over the file's lines of this peptide of 121.
On the same count and under the same terms, the same measure for B37: 36.7.
On the same count and under the same terms, in the case of B38 it was 77.3.
